# Assay results reported in the supplement of paper PMC9170038.
# Tested on: K4 kissing-loop RNA reporter
# Experiment: apparent KD of K4 kissing-loop reporter; higher = weaker reporter binding
# Conditions: Eterna round: R107; input ligand: FMN 200 uM
# Protocol: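 RNA-MaP round R107: designed RNA switches with theophylline, tryptophan, arginine or FMN aptamers are transcribed on-chip within common flanks. They are titrated with a labelled K4 kissing-loop RNA reporter in RNA-MaP buffer (100 mM Tris pH 7.5, 80 mM KCl, 4 mM MgCl2), without ligand or with the indicated ligand. Median apparent KD per design.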
# 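Further: bound reporter read as fluorescence of individual clusters on recovered sequencing chips by microscopy, with normalized cluster intensities fitted with a binding model.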
row,Sequence,apparent KD of K4 kissing-loop reporter
1,UCGGACCCUGGAGGAUAUGAGUCUAGUGAUGUUAGGCGGUCCAUGCGCGUGGCGCGUUAUGCCCUUUUAGAAGGCCAGGGUCCGA [#2 Exclusion - FMN B Attempt #15 (HarryS)],113 nM
2,GGUAGCAUGGCGGCCGCCACUUAUGUUCACAUAGUGAUGUUAUGUUCACAUUUAUGGCCCUGCUUAAGGACCGGGCCAUGCUACC,118 nM
3,AGUGAACGAGCGGCCGCCACUAACUGAGUGAUGUUCGUGAGUAGUGCUGUUCUCAUGAUUGUUUUUAGGACCGGGUUCGAUGUUG [ttbjmullin],483 nM
4,AAGUGAUGUUGUAGUGAUGUUGUGAUGUUGCAGGAUAUAUAGUGAUGUAGAAGGGUAUGUGCAGUUUUCUUUUUUGAGUGUUGAU [aavamullin],72.1 nM
5,ACGUAGUUCUAGGAUACCAGCCAAGAAGCCAGGACAAAAGUCCUGGCUGCCAGUGAUGUUGGCCCUUGGCAGCCUAGAACUACGA [Omei KL Theo B Exc B v10],128 nM
6,GAUCUGAACGAAAGUUCGGAUCAGUCCGAUACCAGUAUGGAUUCAUACCCUUGGCAGCGGAAAUCUGCUAUGGAGUGAUGUUCCU [Theophylline A K4 13],362 nM
7,UGACAUUGCUCAGAUACCAGACCUGAGGAUCACCCGGGUGCCAAACGUACAAUAAUAAAGGUCCCUUGGCAGCUGAGCAAUGUCU [TheoBX 14],56.2 nM
8,GGGUGGCAGACGGCCGCCACUCUUAGCAGCCAGUGAGUGAUGUUCGUGGCGGAGUGAUGUUCCUAGAGGACCGGGUUUGUUGUUC [Same State Tryptophan B GF 20],413 nM
9,UGGGAUUUGUCAGGAUAUGAGUGCAGUGAUGUUGCACUUAAUAAAGUACAUAGGCCCUGCUGGCACUCAGAAGGGACGGUGAUGC [Lalasobeer],122 nM
10,CAGGCCGAGUGAUGUUCGGUCUGAGUGAUAAAGGAUAUAAGGGAUUUUAGAAGGUUAUCUAAACAGACCAAACAUCUAUCCACUC [theeternabot_exclusion_KL_FMN_A_16],221 nM
11,UUAGUAUAGAGAGGAUAUACCUUCCAGUGAUGUUGGAUAGAUGAAUUUAAUCAUCAAGCAUAGCUUGUAGAAGGCUCUAUACAUU [AK1 SS FMN B],373 nM
12,CAACCGUAACACGAUACCAGCCUAGAAGCCAGUGAUGUUGGCCUUUUUUCGGAAAUGAAAGGCCCUUGGCAGCGUGGAUAAAAUG [Lelabiised],451 nM
13,UGUGGAGGAUAUGAUACCAGCAGUGAGAGAGAGGAAGUAUAGUGAUGUUAUAUGAGAGAAUGCCCUUGGCAGCGUAUGUAGUAGG [SSTheophylB.I],270 nM
14,AACUGUCAAGGACAACAUUACUGAGGUGAUACCAGCAUCGAAAGAUGCCCUUGGCAGCACCAACUUGCAGUGAUGUUGCAAGUAA [Design6],212 nM
15,CGCAGUGAUGUUGCUUAUAUUCUUGGUUAACGAGGACCGGUACGGCCGCCACUCGAUUUCUAACUAUUCCAGUGUUAAUUUGAGU [JR_ExcTryptoA_Sub006],444 nM
16,UCCUGCAAUCUGCCACGAAAGUGGGUUGAUACCAGAGUCGAAAGACUCCCUUGGCAGCGAGUGAUGUUCGUUGCAGGUGUAUAAA [MatMod 10 - Jieux - Exclusion - Theophylline A],195 nM
17,AGUAGAGCAUCAGAUACCAGACAGAACUGAUGGUAAGGAGUGAUGUUCCUUAAUCAGCUUGUCCCUUGGCAGCUGAUAGUAGUCA [#14 K4 Theophylline B Same State],388 nM
18,UUCUACGAGUGAUGUUCGUAGUGUAUUCACUAGGAUAUCGUUUUUUCGAGAAGGAGUGAGGAAGUGAUACGAAAGUAUCGCUUCC [FMN A 15],192 nM
19,ACUAAGGUUUUUGGAGCAGUGAUGUUGCUCCGAGGACCGGUACGGCCGCCACUCGGUGCAUGUAUGCGCUUCACUCCGGAAGUUG [Bieron],152 nM
20,GGUUCGAGUGAUGUUCGGGUCGAUUGGGAAGGAGCGCCCGGAAGGGCAGGUAGGUCGCCCGGGCCGCGCGGGAAACCGCGCGUCC [#2 Same State - Arginine A Attempt #7 (HarryS)],216 nM
21,UUUAUAAUGUCGGCCGCCACUGGAUUAAUAUUUGUAUAAUCUAGUUCUGAGUGAUGUUUAGAGUCCAGGACCGGGACAUUUGUUA [#10 K4 Tryptophan B Exclusion],701 nM
22,GCCGUAGAUGGAAGGAGCGAGGUAGACUGUUGAAGUGAUGUUUCAACUCAUUAAGCCCAACCUCAGGUAGGUCGCCAUCUACGGC,133 nM

row,Sequence,apparent KD of K4 kissing-loop reporter
1,UGAUAGGACAGAAGGAGCGGUAGUGAUGUUGCCAAAAGAAUAAGGUGUCAAAAGACACCCUACCAGGUAGGUCGCUGUCCUAUCU,346 nM
2,CGCAGUGAUGUUGCGAGUUUAUUCAGGGAAGGAGCGCCACAGAUGGCAGGUAGGUCGCCCACGCAGUGAUGUUGUGUAUUCGGGU [Exclusion Arginine A GF 3],141 nM
3,UUUUAGGUAUCUGAUACCAGAGAAAAUAUAUGUAGUGAUGUUAUAUACAAAAUAAUUAAGCUCCCUUGGCAGCAGUAUUAAUUUU [AstrosExc-TheB#3],825 nM
4,UGCGCUGUGUACUGAAAUGUUCUGCGGGAUACCAGAGUCUUUUUAUUCCCUUGGCAGCUUGAGUGAUGUUUGAUGCCGUUCUUGU [tffeymullin],494 nM
5,GAAUUAUGUAGAAGGAGCGUUAGAAGGUAUAGGUGCGAGUGAUGUUUGGACUUGUUAAUUUGACAGGUAGGUCGCUACAGAAGGA [KL-SSArg B19 #analogue],496 nM
6,UAAUGCAUGACGGCCGCCACUAGUACUGGAGUGAUGUUGUGGUACGGCGGCAGUUUAGGGUGGACUAGGACCGGGUCAUGCAUAU [KL-XTryp-B10 #analogue],461 nM
7,GCCAGGCAUCUGCAGAGUGAUGUUCAAAAGCGAGGACCGGUACGGCCGCCACUCGAAAGCAGAUGCCUGGGCGUACAAAGUACGC [idea],1140 nM
8,UUGAGCCUGACGCAAGUCAGGCUCUGCGAGCGAGGACCGGUACGGCCGCCACUCGGUGCAGUGAUGUUGCAUGGCCGCAAGGCCG [#2 Exclusion - Tryptophan A Attempt #17 (HarryS)],316 nM
9,AUUGAUAUAUAUAUUUGAUUUUUAUGUGAUACCAGACAAGGCAUAGUCCCUUGGCAGCACUUUAUAUUUACGAGUGAUGUUCGUA [JR_SSTheophyA_Sub025],192 nM
10,CAAUGAGUAUAAGAUGAUAUCAUAACAGAAGGAGCGAGUGAUAACUCAGGUAGGUCGCUGAAUUUAUCGAGUGAUGUUCGAUAGA [whbob_SS_Arginine_A_sa117],202 nM
11,AGACUUCACCGAAGGAGCGACGUAGCCUAGUGAUGUUAGGCACGAGAGAAAUCUCGUGUACGUCAGGUAGGUCGCGGUGAAGUCA [Omei KL Arginine B SS C v5],990 nM
12,UAGAGAUCGAGAAGGAGCGAGAAAGCUAGUACAUAUGUACUAGCAAAGCAGUGAUGUUGCACUCAGGUAGGUCGCUCGAUCUCAU [AK1.1 SS Arginine B],337 nM
13,UGCACGGGCUCGGCCGCCACUCCCGCGGGUCGGAAGGUCCGCUACUGAGUGAUGUUCGGUUGGAGGAGGACCGGGAGCCCGUGCA [#2 Exclusion - Tryptophan B Attempt #26 (HarryS)],135 nM
14,CGUUUAGUGAUGUUAAGCGUCCACUACGAUACCAGAACUAUAACCUUCCCUUGGCAGCGUUUAUAUUGUAACUCAUGUGUUAAUU [theeternabot_exclusion_KL_Theo_A_11],520 nM
15,GCCGUACGCAUGGAUACCAGAGAUGUUAGUCUCGAUGCCAGUGAUGUUGGCUAUAGCAUACUCCCUUGGCAGCCAUGCGUACGGC,132 nM
16,GGAUCCACCAGUGAUGUUGGAGAAAACUCUAAGGAUAUGACGAAAGUCAGAAGGUGGUAGACUGGACAAAGUCCGGUGGGAUCCA [FmnA10 U30+G78],264 nM
17,AUCUGUCAAGGACAACAUUACUGAGGUGAUACCAGCAUCGAAAGAUGCCCUUGGCAGCACCAACUUGCAGUGAUGUUGCAAGUAA [BrourdMod 10 - Jieux - Exclusion - Theophylline A],346 nM
18,GUACGCUUCCGAGUGAUGUUCGGUAAUAGUUAGGAUAUCGUUUUUUCGAGAAGGAACUGAAUGAGGAAACUCGUUCGAAGUGUAC [FMN A 16],395 nM
19,UGAUACCAGACGGCCGCCACUCCCGUAAGUCAAAGACUUACGAAGAGAGUUUUUCAGUGAUGUUGGAGGACCGGGUCUGGUAUCU [FiskerMod 16 - Jieux - Exclusion - Tryptophan B],838 nM
20,CCUAUCUCAUACGAUACCAGUCAACGAGUGAUGUUCGAAUAAAUAAAUUUGCCAAAUAAUGACCCUUGGCAGCGUAUGGGAUAGG [Ex Theophylline B K4 15],299 nM
21,GUCCCGAGUGAUGUUCGGGUCGUUUGGGAAGGAGCGCCCGGAAGGGCAGGUAGGUCGCCCGGACCGUGCAGGUAACUGUGCGGCC [#2 Same State - Arginine A Attempt #18 (HarryS)],176 nM

# Same assay, conditions: Eterna round: R107; input ligand: arginine 13.2 mM
row,Sequence,apparent KD of K4 kissing-loop reporter
1,UCGGACCCUGGAGGAUAUGAGUCUAGUGAUGUUAGGCGGUCCAUGCGCGUGGCGCGUUAUGCCCUUUUAGAAGGCCAGGGUCCGA [#2 Exclusion - FMN B Attempt #15 (HarryS)],72.4 nM
2,GGUAGCAUGGCGGCCGCCACUUAUGUUCACAUAGUGAUGUUAUGUUCACAUUUAUGGCCCUGCUUAAGGACCGGGCCAUGCUACC,90.3 nM
3,AGUGAACGAGCGGCCGCCACUAACUGAGUGAUGUUCGUGAGUAGUGCUGUUCUCAUGAUUGUUUUUAGGACCGGGUUCGAUGUUG [ttbjmullin],329 nM
4,AAGUGAUGUUGUAGUGAUGUUGUGAUGUUGCAGGAUAUAUAGUGAUGUAGAAGGGUAUGUGCAGUUUUCUUUUUUGAGUGUUGAU [aavamullin],30.8 nM
5,ACGUAGUUCUAGGAUACCAGCCAAGAAGCCAGGACAAAAGUCCUGGCUGCCAGUGAUGUUGGCCCUUGGCAGCCUAGAACUACGA [Omei KL Theo B Exc B v10],113 nM
6,GAUCUGAACGAAAGUUCGGAUCAGUCCGAUACCAGUAUGGAUUCAUACCCUUGGCAGCGGAAAUCUGCUAUGGAGUGAUGUUCCU [Theophylline A K4 13],280 nM
7,UGACAUUGCUCAGAUACCAGACCUGAGGAUCACCCGGGUGCCAAACGUACAAUAAUAAAGGUCCCUUGGCAGCUGAGCAAUGUCU [TheoBX 14],39.7 nM
8,GGGUGGCAGACGGCCGCCACUCUUAGCAGCCAGUGAGUGAUGUUCGUGGCGGAGUGAUGUUCCUAGAGGACCGGGUUUGUUGUUC [Same State Tryptophan B GF 20],259 nM
9,UGGGAUUUGUCAGGAUAUGAGUGCAGUGAUGUUGCACUUAAUAAAGUACAUAGGCCCUGCUGGCACUCAGAAGGGACGGUGAUGC [Lalasobeer],73.6 nM
10,CAGGCCGAGUGAUGUUCGGUCUGAGUGAUAAAGGAUAUAAGGGAUUUUAGAAGGUUAUCUAAACAGACCAAACAUCUAUCCACUC [theeternabot_exclusion_KL_FMN_A_16],128 nM
